From patent JP2016028048A (dated 2016)
Residue numbers refer to the chain shown, from its start.

T1: ヒト組織因子経路インヒビター (human TFPI) (human, UniProt P10646 29-304, limits assumed)
T1 construct: Coated on Maxisorp plates (ELISA) or amine-coupled to a CM5 chip (Biacore); also called ヒトTFPI; hTFPI
T1 sequence (looked up): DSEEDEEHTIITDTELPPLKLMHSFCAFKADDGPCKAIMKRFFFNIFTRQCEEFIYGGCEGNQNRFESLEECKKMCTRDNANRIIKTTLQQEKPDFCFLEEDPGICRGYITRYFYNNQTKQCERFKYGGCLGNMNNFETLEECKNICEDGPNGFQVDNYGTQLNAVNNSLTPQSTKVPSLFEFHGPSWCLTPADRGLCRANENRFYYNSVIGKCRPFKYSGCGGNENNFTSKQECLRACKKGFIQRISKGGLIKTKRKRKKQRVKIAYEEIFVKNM

T2: マウスTFPI (mouse TFPI) (mouse, UniProt O54819 29-289, limits assumed)
T2 construct: Coated on plates (ELISA) or amine-coupled to a CM5 chip (Biacore); also called mTFPI; m-TFPI
T2 sequence (looked up): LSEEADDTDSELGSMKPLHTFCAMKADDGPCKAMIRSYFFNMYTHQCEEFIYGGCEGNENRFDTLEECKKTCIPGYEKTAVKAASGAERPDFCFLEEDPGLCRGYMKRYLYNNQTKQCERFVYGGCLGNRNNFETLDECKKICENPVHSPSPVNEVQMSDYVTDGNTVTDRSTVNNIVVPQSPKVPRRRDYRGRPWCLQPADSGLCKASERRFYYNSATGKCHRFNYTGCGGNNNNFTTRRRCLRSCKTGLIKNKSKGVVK

B1: TP-2G6 (Fab, V domains shown)
VH: QVQLQQSGPGLVKPSQTLSLTCAISGDSVSSSSAAWSWIRQSPGRGLEWLGIIYYRSKWYNDYAVSVKSRITINPDTSKNQFSLQLNSVTPEDTAVYYCARHSMVGFDVWGQGTLVTVSS
VL: DIVLTQSPATLSLSPGERATLSCRASQYVTSSYLAWYQQKPGQAPRLLIYGSSRATGVPARFSGSGSGTDFTLTISSLEPEDFATYYCQQYSSSPITFGQGTKVEIKR
notes: Human Fab (HuCal Gold), made in E. coli TG1; also called 2G6-Fab
B2: 2G6-IgG (antibody, V domains shown)
VH: B1 VH
VL: B1 VL
notes: also called IgG-2G6; TP-2G6 after conversion to IgG
B3: TP-2B3 (Fab, V domains shown)
VH: QVQLQQSGPGLVKPSQTLSLTCAISGDSVSSNSAAWGWIRQSPGRGLEWLGMIYYRSKWYNSYAVSVKSRITINPDTSKNQFSLQLNSVTPEDTAVYYCARTMSKYGGPGMDVWGQGTLVTVSS
VL: DIVLTQSPATLSLSPGERATLSCRASQNIGSNYLAWYQQKPGQAPRLLIYGASTRATGVPARFNGSGSGTDFTLTISSLEPEDFAVYYCQQLNSIPVTFGQGTKVEIKR
notes: Human Fab (HuCal Gold), made in E. coli TG1
B4: TP-2B4 (Fab, V domains shown)
VH: QVQLVESGGGLVQPGGSLRLSCAASGFTFSNYSMTWVRQAPGKGLEWVSGISYNGSNTYYADSVKGRFTISRDNSKNTLYLQMNSLRAEDTAVYYCARIYYMNLLAGWGQGTLVTVSS
VL: DIELTQPPSVSVAPGQTARISCSGDALGTYYAYWYQQKPGQAPVLVIYGDMNRPSGIPERFSGSNSGNTATLTISGTQAEDEADYYCQSYDAGVKPAVFGGGTKLTVLG
notes: as for B3
B5: TP-2B1 (Fab, V domains shown)
VH: QVQLVESGGGLVQPGGSLRLSCAASGFTFSSYSMSWVRQASGKGLEWVSSIKGSGSNTYYADSVKGRFTISRDNSKNTLYLQMNSLRAEDTAVYYCARNGGLIDVWGQGTLVTVSS
VL: DIELTQPPSVSVAPGQTARISCSGDNLGNKYAHWYQQKPGQAPVLVIYYDNKRPSGIPERFSGSNSGNTATLTISGTQAEDEADYYCQSWTPGSNTMVFGGGTRLTVLG
notes: as for B3
B6: TP-3F2 (Fab, V domains shown)
VH: QVQLVESGGGLVQPGGSLRLSCAASGFTFSSYSMHWVRQAPGKGLEWVSGISYSSSFTYYADSVKGRFTISRDNSKNTLYLQMNSLRAEDTAVYYCARALGGGVDYWGQGTLVTVSS
VL: DIELTQPPSVSVAPGQTARISCSGDNLPSKSVYWYQQKPGQAPVLVIYGDNNRPSGIPERFSGSNSGNTATLTISGTQAEDEADYYCQSWTSRPMVVFGGGTKLTVLG
notes: as for B3
B7: TP-3F1 (Fab, V domains shown)
VH: QVQLVQSGAEVKKPGESLKISCKGSGYSFTDYWIGWVRQMPGKGLEWMGIIQPSDSDTNYSPSFQGQVTISADKSISTAYLQWSSLKASDTAMYYCARFMWWGKYDSGFDVWGQGTLVTVSS
VL: DIELTQPPSVSVAPGQTARISCSGDNIGSYFASWYQQKPGQAPVLVIYDDSNRPSGIPERFSGSNSGNTATLTISGTQAEDEADYYCEGSNVFGGGTKLTVLG
notes: as for B3
B8: TP-3G3 (Fab, V domains shown)
VH: QVQLVESGGGLVQPGGSLRLSCAASGFTFSSYSMSWVRQAPGKGLEWVSSISSSSSNTYYGDSVKGRFTISRDNSKNTLYLQMNSLRAEDTAVYYCARMHYKGMDIWGQGTLVTVSS
VL: DIQMTQSPSSLSASVGDRVTITCRASQNIHSHLNWYQQKPGKAPKLLIYDASSLQSGVPSRFSGSGSGTDFTLTISSLQPEDFAVYYCQQYYDYPLTFGQGTKVEIKR
notes: as for B3
B9: TP-3H2 (Fab, V domains shown)
VH: QVQLVESGGGLVQPGGSLRLSCAASGFTFNSYYMSWVRQAPGKGLEWVSNISSSGSNTNYADSVKGRFTISRDNSKNTLYLQMNSLRAEDTAVYYCARVHYGFDFWGQGTLVTVSS
VL: DIELTQPPSVSVAPGQTARISCSGDKLGKYYAYWYQQKPGQAPVLVIYGDSKRPSGIPERFSGSNSGNTATLTISGTQAEDEADYYCSSAAFGSTVFGGGTKLTVLG
notes: as for B3
B10: TP-3G1 (Fab, V domains shown)
VH: QVQLQQSGPGLVKPSQTLSLTCAISGDSVSSNSGGWGWIRQSPGRGLEWLGLIYYRSKWYNAYAVSVKSRITINPDTSKNQFSLQLNSVTPEDTAVYYCARYLGSNFYVYSDVWGQGTLVTVSS
VL: DIQMTQSPSSLSASVGDRVTITCRASQGISSYLHWYQQKPGKAPKLLIYGASTLQSGVPSRFSGSGSGTDFTLTISSLQPEDFATYYCQQQNGYPFTFGQGTKVEIKR
notes: as for B3
B11: TP-4B7 (Fab, V domains shown)
VH: QVQLQQSGPGLVKPSQTLSLTCAISGDSVSSNSAAWSWIRQSPGRGLEWLGIIYKRSKWYNDYAVSVKSRITINPDTSKNQFSLQLNSVTPEDTAVYYCARWHSDKHWGFDYWGQGTLVTVSS
VL: DIVMTQSPLSLPVTPGEPASISCRSSQSLVFSDGNTYLNWYLQKPGQSPQLLIYKGSNRASGVPDRFSGSGSGTDFTLKISRVEAEDVGVYYCQQYDSYPLTFGQGTKVEIKR
notes: as for B3
B12: TP-2B8 (Fab, V domains shown)
VH: QVQLVQSGAEVKKPGASVKVSCKASGYTFTGNSMHWVRQAPGQGLEWMGTIFPYDGTTKYAQKFQGRVTMTRDTSISTAYMELSSLRSEDTAVYYCARGVHSYFDYWGQGTLVTVSS
VL: DIELTQPPSVSVAPGQTARISCSGDNLRGYYASWYQQKPGQAPVLVIYEDNNRPSGIPERFSGSNSGNTATLTISGTQAEDEADYYCQSWDSPYVHVFGGGTKLTVLG
notes: as for B3
B13: TP-2A10 (Fab, V domains shown)
VH: QVQLVESGGGLVQPGGSLRLSCAASGFTFTSYSMNWVRQAPGKGLEWVSAISYTGSNTHYADSVKGRFTISRDNSKNTLYLQMNSLRAEDTAVYYCARAFLGYKESYFDIWGQGTLVTVSS
VL: DIELTQPPSVSVAPGQTARISCSGDKLGKKYVHWYQQKPGQAPVLVIYGDDKRPSGIPERFSGSNSGNTATLTISGTQAEDEADYYCQAWGSISRFVFGGGTKLTVLG
notes: as for B3
B14: TP-3E1 (Fab, V domains shown)
VH: QVQLVESGGGLVQPGGSLRLSCAASGFTFSNYAMTWVRQAPGKGLEWVSVISSVGSNTYYADSVKGRFTISRDNSKNTLYLQMNSLRAEDTAVYYCARPTKAGRTWWWGPYMDVWGQGTLVTVSS
VL: DIELTQPPSVSVAPGQTARISCSGDNIGSYYAYWYQQKPGQAPVLVIYDDSNRPSGIPERFSGSNSGNTATLTISGTQAEDEADYYCQSYDSTGLLVFGGGTKLTVLG
notes: as for B3
B15: TP-4A7 (Fab, V domains shown)
VH: QVQLVESGGGLVQPGGSLRLSCAASGFTFRNYAMNWVRQAPGKGLEWVSVISGSSSYTYYADSVKGRFTISRDNSKNTLYLQMNSLRAEDTAVYYCARADLPYMVFDYWGQGTLVTVSS
VL: B14 VL with N26A, I27L, Y30K, Y31F, Y33H, N52E, S89A, T93G, G94L, L96Y
notes: as for B3
B16: TP-2A8 (Fab, V domains shown)
VH: QVQLVESGGGLVQPGGSLRLSCAASGFTFRSYGMSWVRQAPGKGLEWVSSIRGSSSSTYYADSVKGRFTISRDNSKNTLYLQMNSLRAEDTAVYYCARKYRYWFDYWGQGTLVTVSS
VL: DIELTQPPSVSVAPGQTARISCSGDNLRNYYAHWYQQKPGQAPVVVIYYDNNRPSGIPERFSGSNSGNTATLTISGTQAEDEADYYCQSWDDGVPVFGGGTKLTVLG
notes: Human Fab (HuCal Gold), made in E. coli TG1; also called Fab-2A8; TP-2A8-Fab
B17: TP-3D3 (Fab, V domains shown)
VH: QVQLVESGGGLVQPGGSLRLSCAASGFTFSSYASWVRQAPGKGLEWVSGISGDGSNTHYADSVKGRFTISRDNSKNTLYLQMNSLRAEDTAVYYCARYDNFYFDVWGQGTLVTVSS
VL: DIELTQPPSVSVAPGQTARISCSGDSLGSKFAHWYQQKPGQAPVLVIYDDSNRPSGIPERFSGSNSGNTATLTISGTQAEDEADYYCSTYTSRSHSYVFGGGTKLTVLG
notes: as for B3

Target: T1, ヒト組織因子経路インヒビター (human TFPI)
Assay: ELISA on human TFPI-coated plate

Row | Binder | EC50 [nM]
1 | B1 | 0.48
2 | B2 | 0.22

Target: T2, マウスTFPI (mouse TFPI)
Assay: ELISA on mouse TFPI-coated plate

Row | Binder | EC50 [nM]
3 | B1 | 5.18
4 | B2 | 0.51

Target: T1, ヒト組織因子経路インヒビター (human TFPI)
Assay: ELISA on human TFPI-coated plate; IgG against the Fab

Row | Binder | fold change of EC50 against 2G6-Fab
5 | B2 | 2 倍

Target: T2, マウスTFPI (mouse TFPI)
Assay: ELISA on mouse TFPI-coated plate; IgG against the Fab

Row | Binder | fold change of EC50 against 2G6-Fab
6 | B2 | 10 倍

Target: T1, ヒト組織因子経路インヒビター (human TFPI)
Assay: ELISA, Fab in bacterial lysate on human TFPI-coated plate

Row | Binder | binding result
7 | B3 | binds
8 | B4 | binds
9 | B5 | binds
10 | B6 | binds
11 | B7 | binds
12 | B8 | binds
13 | B9 | binds
14 | B10 | binds
15 | B11 | binds
16 | B12 | binds
17 | B13 | binds
18 | B14 | binds
19 | B15 | binds
20 | B16 | binds
21 | B17 | binds
